The results in this text go back to PMC2944802, “CpG-Methylation Regulates a Class of Epstein-Barr Virus Promoters”.

The target in the data set is Zta (BZLF1:Strep/FLAG) (Epstein-Barr virus, UniProt P03206 149-245). Description: EMSA; apparent, Hill fit; […]; pH and temperature not stated. To be noted: protein: recombinant; tags: tandem StrepII/FLAG; chain copies: 2; label: 32P 5' end; blunt.
Chain of Zta (BZLF1:Strep/FLAG) (P03206 149-245): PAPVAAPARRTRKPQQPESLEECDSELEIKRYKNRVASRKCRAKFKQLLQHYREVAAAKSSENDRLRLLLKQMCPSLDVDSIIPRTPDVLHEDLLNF

B1: oriLyt ZRE5 (dsDNA)
DNA 1: TTGTCACCTTTGCACATTTGGTCAG
DNA 2: CTGACCAAATGTGCAAAGGTGACAA
Take B1: the Kd amounted to 37.7 ± 4.3 nM.

B2: BMRF1 ZRE A (dsDNA)
DNA 1: TTGGTGGATGTGCGAGCCATAAAGC
DNA 2: GCTTTATGGCTCGCACATCCACCAA
On to B2, for which the Kd amounted to 328 ± 166 nM.

B3: BBLF4 ZRE A (dsDNA)
DNA 1: ATGACTCGTGTGCGAGCCGGTTTCG
DNA 2: CGAAACCGGCTCGCACACGAGTCAT
Consider B3, for which the Kd is 219 ± 41 nM.

B4: BRLF1 meZRE3 (dsDNA)
DNA 1: CAGTCAAAATTCGCGATGCTATAAA
DNA 2: TTTATAGCATCGCGAATTTTGACTG
modifications: 5mC at positions 12 and 14 of strand 1; bottom-strand methylation not shown in material
Consider B4, for which the Kd was determined as 135 ± 45 nM.

B5: BRLF1 meZRE2 (dsDNA)
DNA 1: CTAAGCTTATGAGCGATTTTATCAC
DNA 2: GTGATAAAATCGCTCATAAGCTTAG
modifications: 5mC at position 14 of strand 1; bottom-strand methylation not shown in material
B5: the Kd turned out to be 12.7 ± 8.2 nM.

B6: BHLF1 ZRE2 (dsDNA)
DNA 1: TTTAAGGTTTGCTCAGGAGTGGGG
DNA 2: CCCCACTCCTGAGCAAACCTTAAA
Consider B6, for which the Kd worked out at 91.6 ± 38.5 nM.

B7: BRLF1 ZRE3 (dsDNA)
DNA 1: CAGTCAAAATTCGCGATGCTATAAA
DNA 2: TTTATAGCATCGCGAATTTTGACTG
As for B7, the Kd was determined as 1190 ± 227 nM.

B8: BMLF1 ZRE AP-1 (dsDNA)
DNA 1: GCGAAGCACTGACTCATGAAGGTGA
DNA 2: TCACCTTCATGAGTCAGTGCTTCGC
Regarding B8, the Kd was determined as 40.8 ± 23 nM.

B9: BBLF4 meZRE A (dsDNA)
DNA 1: ATGACTCGTGTGCGAGCCGGTTTCG
DNA 2: CGAAACCGGCTCGCACACGAGTCAT
modifications: 5mC at position 13 of strand 1; bottom-strand methylation not shown in material
With B9, the Kd came out at 16.3 ± 2.6 nM.

B10: BBLF4 ZRE B (dsDNA)
DNA 1: CTCTCCTATGAGCGTTATGTGGACT
DNA 2: AGTCCACATAACGCTCATAGGAGAG
Take B10: the Kd was determined as 484 ± 244 nM.

B11: BMRF1 meZRE A (dsDNA)
DNA 1: TTGGTGGATGTGCGAGCCATAAAGC
DNA 2: GCTTTATGGCTCGCACATCCACCAA
modifications: 5mC at position 13 of strand 1; bottom-strand methylation not shown in material
Consider B11, for which the Kd came to 20.2 ± 12.5 nM.

B12: BBLF4 meZRE B (dsDNA)
DNA 1: CTCTCCTATGAGCGTTATGTGGACT
DNA 2: AGTCCACATAACGCTCATAGGAGAG
modifications: 5mC at position 13 of strand 1; bottom-strand methylation not shown in material
In the case of B12, the Kd is 18 ± 4.2 nM.

B13: BRLF1 ZRE2 (dsDNA)
DNA 1: CTAAGCTTATGAGCGATTTTATCAC
DNA 2: GTGATAAAATCGCTCATAAGCTTAG
For B13, the Kd came out at 113 ± 11.9 nM.
